Laboratory results: PMC4833862

Target: CthACC (full-length Chaetomium thermophilum acetyl-CoA carboxylase, 1-2,297) (Chaetomium thermophilum)
Test: SAXS; 30 mM MOPS pH 7, 200 mM ammonium sulfate, 5% glycerol, 10 mM dithiothreitol; 2.5, 5 and 10 mg/ml, extrapolated to zero concentration

stoichiometry N: 2
Substance: CthACC (full-length Chaetomium thermophilum acetyl-CoA carboxylase, 1-2,297) (enzyme)
